According to patent publication US20230272119A1 (MARENGO THERAPEUTICS, published 2023):

Legend:
[1] = target: T1, α-IFN heavy-LgBiT (SEQ ID NO: 107); assay: NanoBiT, HC-LgBiT:LC-SmBiT:competing LC 1:1:1; competing lambda LC m69 (SEQ ID NO: 160)
T1 construct: VH-CH1-linker-LgBiT; germline VH5-51*01

[2] = target: T1, α-IFN heavy-LgBiT (SEQ ID NO: 107); assay: NanoBiT, HC-LgBiT:LC-SmBiT:competing LC 1:1:1; competing lambda LC m48 (SEQ ID NO: 139)
[3] = target: T1, α-IFN heavy-LgBiT (SEQ ID NO: 107); assay: NanoBiT, HC-LgBiT:LC-SmBiT:competing LC 1:1:1; competing lambda LC m72 (SEQ ID NO: 163)
[4] = target: T2, α-CD221 heavy-LgBiT (SEQ ID NO: 134); assay: NanoBiT, HC-LgBiT:LC-SmBiT:competing LC 1:1:1; competing kappa LC m33 (SEQ ID NO: 124)
T2 construct: VH-CH1-linker-LgBiT; germline VH1-69*01

[5] = target: T2, α-CD221 heavy-LgBiT (SEQ ID NO: 134); assay: NanoBiT, HC-LgBiT:LC-SmBiT:competing LC 1:1:1; competing kappa LC m42 (SEQ ID NO: 133)
[6] = target: T2, α-CD221 heavy-LgBiT (SEQ ID NO: 134); assay: NanoBiT, HC-LgBiT:LC-SmBiT:competing LC 1:1:1; competing kappa LC m21 (SEQ ID NO: 112)
[7] = target: T2, α-CD221 heavy-LgBiT (SEQ ID NO: 134); assay: NanoBiT, HC-LgBiT:LC-SmBiT:competing LC 1:1:1; competing kappa LC m15 (SEQ ID NO: 106)
[8] = target: T3, α-death receptor 5 heavy-LgBiT (SEQ ID NO: 137); assay: NanoBiT, HC-LgBiT:LC-SmBiT:competing LC 1:1:1; competing kappa LC m33 (SEQ ID NO: 124)
T3 construct: VH-CH1-linker-LgBiT; germline VH3-20*01

[9] = target: T3, α-death receptor 5 heavy-LgBiT (SEQ ID …); assay: NanoBiT, HC-LgBiT:LC-SmBiT:competing LC 1:1:1; competing kappa LC m36 (SEQ ID NO: 127)
[10] = target: T3, α-death receptor 5 heavy-LgBiT (SEQ ID …); assay: NanoBiT, HC-LgBiT:LC-SmBiT:competing LC 1:1:1; competing kappa LC m12 (SEQ ID NO: 103)
[11] = target: T3, α-death receptor 5 heavy-LgBiT (SEQ ID …); assay: NanoBiT, HC-LgBiT:LC-SmBiT:competing LC 1:1:1; competing kappa LC m18 (SEQ ID NO: 109)
[12] = target: T4, α-IL23 heavy-LgBiT (SEQ ID NO: 140); assay: NanoBiT, HC-LgBiT:LC-SmBiT:competing LC 1:1:1; competing kappa LC m33 (SEQ ID NO: 124)
T4 construct: VH-CH1-linker-LgBiT; germline VH5-51*01

[13] = target: T4, α-IL23 heavy-LgBiT (SEQ ID NO: 140); assay: NanoBiT, HC-LgBiT:LC-SmBiT:competing LC 1:1:1; competing kappa LC m24 (SEQ ID NO: 115)
[14] = target: T4, α-IL23 heavy-LgBiT (SEQ ID NO: 140); assay: NanoBiT, HC-LgBiT:LC-SmBiT:competing LC 1:1:1; competing kappa LC m27 (SEQ ID NO: 118)
[15] = target: T4, α-IL23 heavy-LgBiT (SEQ ID NO: 140); assay: NanoBiT, HC-LgBiT:LC-SmBiT:competing LC 1:1:1; competing kappa LC m6 (SEQ ID NO: 97)
[16] = target: T5, α-neuropilin 1 heavy-LgBiT (SEQ ID NO: 131); assay: NanoBiT, HC-LgBiT:LC-SmBiT:competing LC 1:1:1; competing lambda LC m66 (SEQ ID NO: 157)
T5 construct: VH-CH1-linker-LgBiT; germline VH3-66*01

[17] = target: T5, α-neuropilin 1 heavy-LgBiT (SEQ ID NO: …); assay: NanoBiT, HC-LgBiT:LC-SmBiT:competing LC 1:1:1; competing lambda LC m63 (SEQ ID NO: 154)
[18] = target: T5, α-neuropilin 1 heavy-LgBiT (SEQ ID NO: …); assay: NanoBiT, HC-LgBiT:LC-SmBiT:competing LC 1:1:1; competing lambda LC m54 (SEQ ID NO: 145)
[19] = target: T5, α-neuropilin 1 heavy-LgBiT (SEQ ID NO: …); assay: NanoBiT, HC-LgBiT:LC-SmBiT:competing LC 1:1:1; competing lambda LC m69 (SEQ ID NO: 160)
[20] = target: T5, α-neuropilin 1 heavy-LgBiT (SEQ ID NO: …); assay: NanoBiT, HC-LgBiT:LC-SmBiT:competing LC 1:1:1; competing lambda LC m48 (SEQ ID NO: 139)
[21] = target: T5, α-neuropilin 1 heavy-LgBiT (SEQ ID NO: …); assay: NanoBiT, HC-LgBiT:LC-SmBiT:competing LC 1:1:1; competing lambda LC m45 (SEQ ID NO: 136)
[22] = target: T5, α-neuropilin 1 heavy-LgBiT (SEQ ID NO: …); assay: NanoBiT, HC-LgBiT:LC-SmBiT:competing LC 1:1:1; competing lambda LC m72 (SEQ ID NO: 163)
[23] = target: T5, α-neuropilin 1 heavy-LgBiT (SEQ ID NO: …); assay: NanoBiT, HC-LgBiT:LC-SmBiT:competing LC 1:1:1; competing lambda LC m51 (SEQ ID NO: 142)
[24] = target: T6, α-IL6R heavy-LgBiT (SEQ ID NO: 125); assay: NanoBiT, HC-LgBiT:LC-SmBiT:competing LC 1:1:1; competing lambda LC m66 (SEQ ID NO: 157)
T6 construct: VH-CH1-linker-LgBiT; germline VH3-9*01

[25] = target: T6, α-IL6R heavy-LgBiT (SEQ ID NO: 125); assay: NanoBiT, HC-LgBiT:LC-SmBiT:competing LC 1:1:1; competing lambda LC m63 (SEQ ID NO: 154)
[26] = target: T6, α-IL6R heavy-LgBiT (SEQ ID NO: 125); assay: NanoBiT, HC-LgBiT:LC-SmBiT:competing LC 1:1:1; competing lambda LC m54 (SEQ ID NO: 145)
[27] = target: T6, α-IL6R heavy-LgBiT (SEQ ID NO: 125); assay: NanoBiT, HC-LgBiT:LC-SmBiT:competing LC 1:1:1; competing lambda LC m48 (SEQ ID NO: 139)
[28] = target: T6, α-IL6R heavy-LgBiT (SEQ ID NO: 125); assay: NanoBiT, HC-LgBiT:LC-SmBiT:competing LC 1:1:1; competing lambda LC m45 (SEQ ID NO: 136)
[29] = target: T7, α-IGF1R heavy-LgBiT (SEQ ID NO: 119); assay: NanoBiT, HC-LgBiT:LC-SmBiT:competing LC 1:1:1; competing lambda LC m63 (SEQ ID NO: 154)
T7 construct: VH-CH1-linker-LgBiT; germline VH3-21*01

[30] = target: T7, α-IGF1R heavy-LgBiT (SEQ ID NO: 119); assay: NanoBiT, HC-LgBiT:LC-SmBiT:competing LC 1:1:1; competing lambda LC m69 (SEQ ID NO: 160)
[31] = target: T7, α-IGF1R heavy-LgBiT (SEQ ID NO: 119); assay: NanoBiT, HC-LgBiT:LC-SmBiT:competing LC 1:1:1; competing lambda LC m72 (SEQ ID NO: 163)
[32] = target: T7, α-IGF1R heavy-LgBiT (SEQ ID NO: 119); assay: NanoBiT, HC-LgBiT:LC-SmBiT:competing LC 1:1:1; competing lambda LC m51 (SEQ ID NO: 142)

B1: α-IFN light-SmBiT (SEQ ID NO: 108) (other)
light: EIVLTQSPGTLSLSPGERATLSCRASQSVSSSFFAWYQQKPGQAPRLLIYGASSRATGIPDRLSGSGSGTDFTLTITRLEPEDFAVYYCQQYDSSAITFGQGTRLEIKRTVAAPSVFIFPPSDEQLKSGTASVVCLLNNFYPREAKVQWKVDNALQSGNSQESVTEQDSKDSTYSLSSTLTLSKADYEKHKVYACEVTHQGLSSPVTKSFNRGECGSSGGGGSGGGGSSGGVTGYRLFEEIL
notes: kappa light chain-linker-SmBiT; germline Vk3-20*01
Percent pairing [1]: 80%
Percent pairing [2]: 100%
Percent pairing [3]: 100%

B2: α-CD221 light-SmBiT (SEQ ID NO: 135) (other)
light: SSELTQDPAVSVALGQTVRITCQGDSLRSYYATWYQQKPGQAPILVIYGENKRPSGIPDRFSGSSSGNTASLTITGAQAEDEADYYCKSRDGSGQHLVFGGGTKLTVLGQPKANPTVTLFPPSSEELQANKATLVCLISDFYPGAVTVAWKADGSPVKAGVETTKPSKQSNNKYAASSYLSLTPEQWKSHRSYSCQVTHEGSTVEKTVAPTECSGSSGGGGSGGGGSSGGVTGYRLFEEIL
notes: lambda light chain-linker-SmBiT; germline Vl3-19*01
Percent pairing [4]: 100%
Percent pairing [5]: 100%
Percent pairing [6]: 95%
Percent pairing [7]: 96%

B3: α-death receptor 5 light-SmBiT (SEQ ID NO: 138) (other)
light: SSELTQDPAVSVALGQTVRITCSGDSLRSYYASWYQQKPGQAPVLVIYGANNRPSGIPDRFSGSSSGNTASLTITGAQAEDEADYYCNSADSSGNHVVFGGGTKLTVLGQPKANPTVTLFPPSSEELQANKATLVCLISDFYPGAVTVAWKADGSPVKAGVETTKPSKQSNNKYAASSYLSLTPEQWKSHRSYSCQVTHEGSTVEKTVAPTECSGSSGGGGSGGGGSSGGVTGYRLFEEIL
notes: as for B2
Percent pairing [8]: 100%
Percent pairing [9]: 95%
Percent pairing [10]: 100%
Percent pairing [11]: 100%

B4: α-IL23 light-SmBiT (SEQ ID NO: 141) (other)
light: QSVLTQPPSVSGAPGQRVTISCTGSSSNIGSGYDVHWYQQLPGTAPKLLIYGNSKRPSGVPDRFSGSKSGTSASLAITGLQSEDEADYYCASWTDGLSLVVFGGGTKLTVLGQPKANPTVTLFPPSSEELQANKATLVCLISDFYPGAVTVAWKADGSPVKAGVETTKPSKQSNNKYAASSYLSLTPEQWKSHRSYSCQVTHEGSTVEKTVAPTECSGSSGGGGSGGGGSSGGVTGYRLFEEIL
notes: lambda light chain-linker-SmBiT; germline Vl1-40*01
Percent pairing [12]: 100%
Percent pairing [13]: 93%
Percent pairing [14]: 91%
Percent pairing [15]: 96%

B5: α-neuropilin 1 light-SmBiT (SEQ ID NO: 132) (other)
light: DIQMTQSPSSLSASVGDRVTITCRASQYFSSYLAWYQQKPGKAPKLLIYGASSRASGVPSRFSGSGSGTDFTLTISSLQPEDFATYYCQQYLGSPPTFGQGTKVEIKRTVAAPSVFIFPPSDEQLKSGTASVVCLLNNFYPREAKVQWKVDNALQSGNSQESVTEQDSKDSTYSLSSTLTLSKADYEKHKVYACEVTHQGLSSPVTKSFNRGECGSSGGGGSGGGGSSGGVTGYRLFEEIL
notes: kappa light chain-linker-SmBiT; germline Vk1-39*01
Percent pairing [16]: 100%
Percent pairing [17]: 100%
Percent pairing [18]: 100%
Percent pairing [19]: 100%
Percent pairing [20]: 100%
Percent pairing [21]: 100%
Percent pairing [22]: 100%
Percent pairing [23]: 84%

B6: α-IL6R light-SmBiT (SEQ ID NO: 126) (other)
light: DIQMTQSPSSVSASVGDRVTITCRASQGISSWLAWYQQKPGKAPKLLIYGASSLESGVPSRFSGSGSGTDFTLTISSLQPEDFASYYCQQANSFPYTFGQGTKLEIKRTVAAPSVFIFPPSDEQLKSGTASVVCLLNNFYPREAKVQWKVDNALQSGNSQESVTEQDSKDSTYSLSSTLTLSKADYEKHKVYACEVTHQGLSSPVTKSFNRGECGSSGGGGSGGGGSSGGVTGYRLFEEIL
notes: kappa light chain-linker-SmBiT; germline Vk1-12*01
Percent pairing [24]: 100%
Percent pairing [25]: 84%
Percent pairing [26]: 100%
Percent pairing [27]: 99%
Percent pairing [28]: 100%

B7: α-IGF1R light-SmBiT (SEQ ID NO: 120) (other)
light: EIVLTQSPGTLSVSPGERATLSCRASQSIGSSLHWYQQKPGQAPRLLIKYASQSLSGIPDRFSGSGSGTDFTLTISRLEPEDFAVYYCHQSSRLPHTFGQGTKVEIKRTVAAPSVFIFPPSDEQLKSGTASVVCLLNNFYPREAKVQWKVDNALQSGNSQESVTEQDSKDSTYSLSSTLTLSKADYEKHKVYACEVTHQGLSSPVTKSFNRGECGSSGGGGSGGGGSSGGVTGYRLFEEIL
notes: as for B1
Percent pairing [29]: 99%
Percent pairing [30]: 100%
Percent pairing [31]: 100%
Percent pairing [32]: 95%
